Experimental data reported in US20240352419A1, “METHODS AND COMPOSITIONS FOR DIFFERENTIATION OF PLURIPOTENT STEM CELLS AND DERIVED HEMATOPOIETIC LINEAGE CELLS” (NUWACELL BIOTECHNOLOGIES CO., LTD., priority 2022, published 2024).

What was measured:
K562 cells = assay: Cytotoxicity of Stage 3 iNK cells by CFSE/7AAD assay; type: cell-based; conditions: added to Stage 3 medium (IL-10 20 ng/mL, IL-18 50 ng/mL), E:T 3:1, 4 hr, FIG. 13A
Method: hiPSCs were prepared as described in CN108373998B. On Day −1, Embryoid body (EB) formation (Stage 1-1) was carried out by placing individualized hiPSCs in E8 medium containing 10 μM Blebbistatin in T25 flasks on a bellydancer and culture overnight. On Day 0, lateral mesoderm differentiation (Stage 1-2) was initiated by changing the medium to a Stage 1-2 differentiation medium comprising IF-4 basal medium and supplemented with BMP4 (25 ng/mL), VEGF (15 ng/ml), bFGF (0.5 ng/mL) and CHIR99021 (4 μM) for 2 days. On Day 2, lateral mesoderm differentiation (Stage 1-3) continued for 1 day in a Stage 1-3 differentiation medium comprising IF-4 basal medium and supplemented with BMP4 (25 ng/mL), VEGF (50 ng/mL) and bFGF (0.5 ng/mL) and CHIR99021 (1 μM). On Day 3, HE specification (Stage 1-4) was initiated by adding a Stage 1-4 differentiation medium comprising IF-4 basal medium and supplemented with VEGF (15 ng/ml), bFGF (5 ng/ml), XAV939 (5 μM) for 1 day. […] On Day 11 of co-culture, iNK cells were collected and stained with CD56-PE antibody (BD, #555516), the percentage of CD56+ cells was analyzed by flow cytometry. The cytotoxicity of Stage 3 iNK cells towards K562 cells was detected by CFSE/7AAD assay after 4 hr co-culture at E:T of 3:1.

iNK cells = assay: Stage 3 expansion of iNK cells co-cultured with feeder cells; type: cell-based, human; conditions: IL-18 (10-50 ng/mL) combined with IL-2 (100 IU/mL) vs IL-2 only, Stage 3, 2 weeks, FIG. 13B
Method: hiPSCs were prepared as described in CN108373998B. On Day −1, Embryoid body (EB) formation (Stage 1-1) was carried out by placing individualized hiPSCs in E8 medium containing 10 μM Blebbistatin in T25 flasks on a bellydancer and culture overnight. On Day 0, lateral mesoderm differentiation (Stage 1-2) was initiated by changing the medium to a Stage 1-2 differentiation medium comprising IF-4 basal medium and supplemented with BMP4 (25 ng/ml), VEGF (15 ng/ml), bFGF (0.5 ng/ml) and CHIR99021 (4 μM) for 2 days. On Day 2, lateral mesoderm differentiation (Stage 1-3) continued for 1 day in a Stage 1-3 differentiation medium comprising IF-4 basal medium and supplemented with BMP4 (25 ng/ml), VEGF (15 ng/mL) and bFGF (0.5 ng/mL) and CHIR99021 (1 μM). On Day 3, HE specification (Stage 1-4) was initiated by adding a Stage 1-4 differentiation medium comprising IF-4 basal medium and supplemented with VEGF (15 ng/ml), bFGF (5 ng/ml), XAV939 (5 μM) for 1 day. On Day 4 (the end of Stage 1-4), HP differentiation (Stage 1-5) in was initiated by adding a Stage 1-5 differentiation medium comprising IF-4 basal medium and supplemented with SCF (10 ng/ml), Flt3L (10 ng/ml), VEGF (15 ng/ml) and bFGF (5 ng/mL). […] On Day 14 of co-culture, iNK cells were collected and stained with CD56-PE antibody (BD, #555516), and the percentage of CD56+ cells was analyzed by flow cytometry. […]

## IL-18: interleukin added to Stage 3 expansion and maturation medium
K562 cells
  cytotoxicity of iNK cells: significantly improve
iNK cells
  expansion fold of iNK cells: improve the expansion fold
